The source of these data is patent US20050124549A1 (ADMINISTRATORS OF THE TULANE EDUCATIONAL FUND, published 2005).

Where no end group is shown, it is not given here. [ ]: non-standard residue; d: D form.

The target in test [1] is T1, human somatostatin receptor subtype 2 (human, UniProt P30874 1-369).
T1 construct: whole, on cells; also called SSTR2; SSTR-2
The test can be described thus: radioligand displacement, CHO-K1 membranes expressing human SSTR2; competitor [125I]MK-678. On the procedure: (§1) Specificity and selectivity of the analogues were determined by Radioligand Binding Assay on CHO-K1 cells stably transfected with each of the SSTR subtypes, as follows.
(§2) Membranes for in vitro receptor binding assays were obtained by homogenizing the CHO-K1 cells expressing the SSTR's subtypes in ice-cold 50 mM Tris-HCl and centrifuging twice at 39000 g (10 min), with an intermediate resuspension in fresh buffer. The final pellets were resuspended in 10 mM Tris-HCl for assay. […] The final assay volume was 0.3 ml. […] The incubations were terminated by rapid filtration through GF/C filters (pre-soaked in 0.3% polyethylenimine) using a Brandel filtration manifold. Each tube and filter were then washed three times with 5 ml aliquots of ice-cold buffer.

Test [2] addresses T2, human somatostatin receptor subtype 1 (human, UniProt P30872 1-391).
T2 construct: whole, on cells; Membrane preparations of transfected CHO-K1 cells; also called SSTR1; SSTR-1
The test can be described thus: radioligand displacement, CHO-K1 membranes expressing human SSTR1; competitor [125I-Tyr11]SS-14. On the procedure:
as §1, §2

The target of test [3] is T3, human somatostatin receptor subtype 3 (human, UniProt P32745 1-418).
T3 construct: whole, on cells; Membrane preparations of transfected CHO-K1 cells; also called SSTR3; SSTR-3
The test can be described thus: radioligand displacement, CHO-K1 membranes expressing human SSTR3; competitor [125I-Tyr11]SS-14. On the procedure: as §1, §2

For test [4], the target named is T4, human somatostatin receptor subtype 5 (human, UniProt P35346 1-364).
T4 construct: whole, on cells; also called SSTR5; SSTR-5
As to the kind of experiment: radioligand displacement, CHO-K1 membranes expressing human SSTR5; competitor [125I-Tyr11]SS-14. On the procedure:
as §1, §2

In test [5] the target is T1, human somatostatin receptor subtype 2. As to the kind of experiment: cell-based or functional assay.
Test [6] has as its target human somatostatin receptor subtype 4 (human) (UniProt P31391). As to the kind of experiment: radioligand displacement, CHO-K1 membranes expressing human SSTR4; competitor [125I-Tyr11]SS-14.

T1 sequence (P30874 whole entry): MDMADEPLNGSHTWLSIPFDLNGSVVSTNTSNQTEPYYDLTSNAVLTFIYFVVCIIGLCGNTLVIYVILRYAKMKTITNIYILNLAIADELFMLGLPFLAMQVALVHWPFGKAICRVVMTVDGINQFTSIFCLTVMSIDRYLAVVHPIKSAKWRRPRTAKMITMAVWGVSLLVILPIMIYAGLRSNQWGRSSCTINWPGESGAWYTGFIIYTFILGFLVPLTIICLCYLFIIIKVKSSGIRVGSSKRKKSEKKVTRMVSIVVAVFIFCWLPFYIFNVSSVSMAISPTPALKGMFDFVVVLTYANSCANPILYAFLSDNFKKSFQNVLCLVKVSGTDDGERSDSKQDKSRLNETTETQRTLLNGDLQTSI
T3 sequence (P32745 whole entry): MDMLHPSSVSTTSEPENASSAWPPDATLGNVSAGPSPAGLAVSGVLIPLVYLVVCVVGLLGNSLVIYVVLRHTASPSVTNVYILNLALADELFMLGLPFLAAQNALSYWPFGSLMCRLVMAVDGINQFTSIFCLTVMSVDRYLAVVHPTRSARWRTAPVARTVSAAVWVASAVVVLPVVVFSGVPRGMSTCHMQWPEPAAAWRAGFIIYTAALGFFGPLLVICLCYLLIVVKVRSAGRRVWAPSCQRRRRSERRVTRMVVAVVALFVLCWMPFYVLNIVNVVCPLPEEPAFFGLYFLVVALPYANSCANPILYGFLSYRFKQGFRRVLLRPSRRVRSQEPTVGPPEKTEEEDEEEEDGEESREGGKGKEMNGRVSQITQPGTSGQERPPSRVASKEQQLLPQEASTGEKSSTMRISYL
T2 sequence (P30872 whole entry): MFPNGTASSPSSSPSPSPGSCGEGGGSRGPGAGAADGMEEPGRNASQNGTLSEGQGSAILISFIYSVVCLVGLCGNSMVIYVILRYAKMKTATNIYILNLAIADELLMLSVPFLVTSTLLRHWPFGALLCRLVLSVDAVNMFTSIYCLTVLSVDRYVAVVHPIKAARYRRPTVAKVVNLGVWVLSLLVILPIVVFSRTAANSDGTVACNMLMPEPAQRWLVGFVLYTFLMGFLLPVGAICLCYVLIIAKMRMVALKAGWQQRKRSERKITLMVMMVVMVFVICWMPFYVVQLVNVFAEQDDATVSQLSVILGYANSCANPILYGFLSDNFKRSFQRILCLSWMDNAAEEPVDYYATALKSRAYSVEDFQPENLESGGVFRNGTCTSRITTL
T4 sequence (P35346 whole entry): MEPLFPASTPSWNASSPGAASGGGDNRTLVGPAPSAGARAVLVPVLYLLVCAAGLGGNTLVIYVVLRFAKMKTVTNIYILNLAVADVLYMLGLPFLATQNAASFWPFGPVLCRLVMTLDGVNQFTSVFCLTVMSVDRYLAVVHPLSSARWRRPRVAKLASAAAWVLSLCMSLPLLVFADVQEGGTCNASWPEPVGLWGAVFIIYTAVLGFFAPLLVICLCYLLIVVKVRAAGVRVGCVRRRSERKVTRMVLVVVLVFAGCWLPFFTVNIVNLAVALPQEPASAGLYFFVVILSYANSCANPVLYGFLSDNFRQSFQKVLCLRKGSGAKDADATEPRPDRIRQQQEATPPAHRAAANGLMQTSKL
Chain of human somatostatin receptor subtype 4 (human) (P31391 whole entry): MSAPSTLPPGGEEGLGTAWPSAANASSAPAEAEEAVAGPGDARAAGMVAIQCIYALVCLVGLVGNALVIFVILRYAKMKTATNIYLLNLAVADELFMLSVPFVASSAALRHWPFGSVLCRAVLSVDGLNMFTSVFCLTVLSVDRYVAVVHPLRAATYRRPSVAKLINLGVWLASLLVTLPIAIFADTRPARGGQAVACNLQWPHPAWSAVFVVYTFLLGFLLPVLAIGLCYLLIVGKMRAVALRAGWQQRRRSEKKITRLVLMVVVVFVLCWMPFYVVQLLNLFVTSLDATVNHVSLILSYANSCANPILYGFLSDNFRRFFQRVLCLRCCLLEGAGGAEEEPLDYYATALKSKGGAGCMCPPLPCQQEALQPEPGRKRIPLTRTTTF

With “Compound 6: Cpa-cyclo(D-Cys-4-Pal-D-Trp-Lys-Thr-Cys)-Nal-NH2 (peptide)”, the IC50 in test [1] is 6.4 nM; in test [2] it was 2760 nM; in test [3], 44 nM; in test [4], 86.5 nM.

As to “Compound 3: 4-(2-Hydroxyethyl)-1-piperazinylacetyl-D-Phe-cyclo(Cys-Tyr-D-Trp-Lys-Abu-Cys)-Thr-NH2 (peptide)”, in test [5], the change of [^3H]thy incorporation in TT cells at 10^-9 M was -17%. In addition, the values for the IC50 in test [1] and in test [2] were 0.35 nM and 5210 nM, respectively.

For the molecule “Compound 2: cyclo[Tic-Tyr-D-Trp-Lys-Abu-Phe] (peptide)”, the suppression of [^3H]thy incorporation in TT cells, 10^-9 to 10^-7 M in test [5] lay in the range of 23 to 58%. For the same molecule, the IC50 in test [6] is 1000 nM; in test [1] it was 0.34 nM; in test [2], 1000 nM; in test [3], 412 nM; in test [4] it was 214 nM.

“Compound 4: 4-(2-Hydroxyethyl)-1-piperazine-2-ethanesulfonyl-D-Phe-cyclo(Cys-Tyr-D-Trp-Lys-Abu-Cys)-Thr-NH2 (peptide)”: the change of [^3H]thy incorporation in TT cells at 10^-9 M in test [5] was -13%.

B1: Compound 5: D-Phe-Phe-Trp-D-Trp-Lys-Thr-Phe-Thr-NH2 (peptide)
peptide: [dF]FW[dW]KTFT-NH2
notes: also called SSTR5 preferential agonist; SSTR5 selective agonist
B1: the IC50 in test [1] was determined as 166 nM; in test [2], 1150 nM; in test [3], 1000 nM; in test [4], 2.4 nM.

B2: Compound 1: D-Nal-cyclo[Cys-Tyr-D-Trp-Lys-Val-Cys]-Thr-NH2 (peptide)
peptide: XCYXKVCT
modifications: not fully specified; D-Nal at position 1; D-Trp at position 4; cyclo (disulfide) Cys2-Cys7; C-terminal amide
notes: also called SSTR2 preferential agonist
As for B2, the values for the IC50 in test [1], in test [2] and in test [3] were 0.75 nM, 2130 nM and 98 nM, respectively.
